Assays:
Test in all cases: cell-based or functional assay
[1] = target: HIV-1 Env of pseudovirus WEAU_d15_410_787 (clade B (T/F)) (HIV-1)
[2] = target: HIV-1 Env of pseudovirus QH0692.42 (clade B) (HIV-1)
[3] = target: HIV-1 Env of pseudovirus ZM233M.PB6 (clade C) (HIV-1)
[4] = target: HIV-1 Env of pseudovirus 6244_13_B5_4576 (clade B (T/F)) (HIV-1)
[5] = target: HIV-1 Env of pseudovirus 1012_11_TC21_3257 (clade B (T/F)) (HIV-1)
[6] = target: HIV-1 Env of pseudovirus CNE52 (clade BC) (HIV-1)
[7] = target: HIV-1 Env of pseudovirus Q259.d2.17 (clade A) (HIV-1)
[8] = target: HIV-1 Env of pseudovirus Ce0393_C3 (clade C (T/F)) (HIV-1)
[9] = target: HIV-1 Env of pseudovirus PVO.4 (clade B) (HIV-1)
[10] = target: HIV-1 Env of pseudovirus 1394C9G1(Rev-) (clade C (T/F)) (HIV-1)
[11] = target: HIV-1 Env of pseudovirus 1054_07_TC4_1499 (clade B (T/F)) (HIV-1)
[12] = target: HIV-1 Env of pseudovirus 249M B10 (clade C (T/F)) (HIV-1)
[13] = target: HIV-1 Env of pseudovirus HIV-0013095-2.11 (clade C) (HIV-1)
[14] = target: HIV-1 Env of pseudovirus 6240_08_TA5_4622 (clade B (T/F)) (HIV-1)
[15] = target: HIV-1 Env of pseudovirus CNE21 (clade BC) (HIV-1)
[16] = target: HIV-1 Env of pseudovirus SC422661.8 (clade B) (HIV-1)
[17] = target: HIV-1 Env of pseudovirus CNE53 (clade BC) (HIV-1)
[18] = target: HIV-1 Env pseudovirus CNE8 (HIV-1)
[19] = target: HIV-1 Env pseudovirus 9004SS_A3_4 (HIV-1)
[20] = target: HIV-1 Env pseudovirus R1166.c01 (HIV-1)
[21] = target: HIV-1 Env pseudovirus 3415.v1.c1 (HIV-1)
[22] = target: HIV-1 Env pseudovirus 235-47 (HIV-1)
[23] = target: HIV-1 Env pseudovirus 0260.v5.c36 (HIV-1)
[24] = target: HIV-1 Env pseudovirus R3265.c06 (HIV-1)
[25] = target: HIV-1 Env pseudovirus 0815.v3.c3 (HIV-1)
[26] = target: HIV-1 Env pseudovirus 263-8 (HIV-1)
[27] = target: HIV-1 Env pseudovirus BJOX025000.01.1 (HIV-1)
[28] = target: HIV-1 Env pseudovirus 231965.c01 (HIV-1)

With N49P7.2 (antibody) the IC50 [1] was 0.052 µg/mL, the IC80 [1] was 0.15 µg/mL and the MPI [1] was 100. For the same substance, the IC50 [2] was 1.26 µg/mL, the IC80 [2] was 4.42 µg/mL and the MPI [2] was 100. The IC50 [3] was 0.475 µg/mL, the IC80 [3] was 2.14 µg/mL and the MPI [3] was 99. The IC50 [4] was 0.331 µg/mL, the IC80 [4] was 1.04 µg/mL and the MPI [4] was 100. The IC50 [5] was 0.06 µg/mL, the IC80 [5] was 0.285 µg/mL and the MPI [5] was 100. It also gave an IC50 [6] of 0.03 µg/mL, an IC80 [6] of 0.088 µg/mL and an MPI [6] of 100. The IC50 [7] was 38.5 µg/mL, the IC80 [7] was over 50 µg/mL and the MPI [7] was 54. It also gave an IC50 [8] of 0.137 µg/mL, an IC80 [8] of 0.368 µg/mL and an MPI [8] of 100. It also gave an IC50 [9] of 0.237 µg/mL, an IC80 [9] of 0.831 µg/mL and an MPI [9] of 100. It also gave an IC50 [10] of over 50 µg/mL, an IC80 [10] of over 50 µg/mL and an MPI [10] of 20. For the same substance, the IC50 [11] was 2.04 µg/mL, the IC80 [11] was 10.7 µg/mL and the MPI [11] was 99. The IC50 [12] was 0.095 µg/mL, the IC80 [12] was 0.349 µg/mL and the MPI [12] was 100. For the same substance, the IC50 [13] was 0.183 µg/mL, the IC80 [13] was 0.931 µg/mL and the MPI [13] was 97. The IC50 [14] was 0.812 µg/mL, the IC80 [14] was 2.87 µg/mL and the MPI [14] was 100. For the same substance, the IC50 [15] was 48.3 µg/mL, the IC80 [15] was over 50 µg/mL and the MPI [15] was 51. For the same substance, the IC50 [16] was 0.119 µg/mL, the IC80 [16] was 0.564 µg/mL and the MPI [16] was 100. It also gave an IC50 [17] of 0.1 µg/mL, an IC80 [17] of 0.277 µg/mL and an MPI [17] of 100.
For N49P9 (antibody), the IC50 [18] was 0.056 µg/mL, the IC80 [18] was 0.26 µg/mL and the MPI [18] was 100. The IC50 [19] was 0.175 µg/mL, the IC80 [19] was 0.751 µg/mL and the MPI [19] was 100. It also gave an IC50 [20] of 0.064 µg/mL, an IC80 [20] of 0.223 µg/mL and an MPI [20] of 100. It also gave an IC50 [21] of 0.137 µg/mL, an IC80 [21] of 0.502 µg/mL and an MPI [21] of 100. The IC50 [22] was 0.072 µg/mL, the IC80 [22] was 0.271 µg/mL and the MPI [22] was 98. It also gave an IC50 [23] of 0.466 µg/mL, an IC80 [23] of 1.85 µg/mL and an MPI [23] of 100. The IC50 [24] was 0.135 µg/mL, the IC80 [24] was 0.812 µg/mL and the MPI [24] was 100. It also gave an IC50 [25] of 0.02 µg/mL, an IC80 [25] of 0.057 µg/mL and an MPI [25] of 100. The IC50 [26] was 0.032 µg/mL, the IC80 [26] was 0.161 µg/mL and the MPI [26] was 100. It also gave an IC50 [27] of 0.055 µg/mL, an IC80 [27] of 0.252 µg/mL and an MPI [27] of 100. It also gave an IC50 [28] of 0.253 µg/mL, an IC80 [28] of 1.16 µg/mL and an MPI [28] of 100.
For N49P11 (antibody), the IC50 [1] was 1.7 µg/mL, the IC80 [1] was 6.02 µg/mL and the MPI [1] was 100. It also gave an IC50 [2] of 0.55 µg/mL, an IC80 [2] of 2.65 µg/mL and an MPI [2] of 100. It also gave an IC50 [3] of 5.92 µg/mL, an IC80 [3] of 18.5 µg/mL and an MPI [3] of 100. The IC50 [4] was 1.12 µg/mL, the IC80 [4] was 5.45 µg/mL and the MPI [4] was 100. It also gave an IC50 [5] of 10.6 µg/mL, an IC80 [5] of 29.3 µg/mL and an MPI [5] of 100. For the same substance, the IC50 [6] was 0.06 µg/mL, the IC80 [6] was 0.307 µg/mL and the MPI [6] was 100. For the same substance, the IC50 [7] was 8.42 µg/mL, the IC80 [7] was 21.4 µg/mL and the MPI [7] was 100. For the same substance, the IC50 [8] was 1.51 µg/mL, the IC80 [8] was 9.71 µg/mL and the MPI [8] was 100. For the same substance, the IC50 [9] was 0.248 µg/mL, the IC80 [9] was 1.17 µg/mL and the MPI [9] was 100. The IC50 [10] was 6.13 µg/mL, the IC80 [10] was 22.3 µg/mL and the MPI [10] was 100. It also gave an IC50 [11] of 2.92 µg/mL, an IC80 [11] of 13.1 µg/mL and an MPI [11] of 100. It also gave an IC50 [12] of 3.54 µg/mL, an IC80 [12] of 12.9 µg/mL and an MPI [12] of 100. The IC50 [13] was 5.85 µg/mL, the IC80 [13] was 17.8 µg/mL and the MPI [13] was 100. The IC50 [14] was 0.72 µg/mL, the IC80 [14] was 3 µg/mL and the MPI [14] was 100. It also gave an IC50 [15] of 7.4 µg/mL, an IC80 [15] of 21.9 µg/mL and an MPI [15] of 100. For the same substance, the IC50 [16] was 0.729 µg/mL, the IC80 [16] was 3.49 µg/mL and the MPI [16] was 100. The IC50 [17] was 0.43 µg/mL, the IC80 [17] was 2.88 µg/mL and the MPI [17] was 100.
Work on N49P18.1 (antibody) yielded an IC50 [1] of 4.27 µg/mL, an IC80 [1] of 15.5 µg/mL and an MPI [1] of 98. It also gave an IC50 [2] of over 50 µg/mL, an IC80 [2] of over 50 µg/mL and an MPI [2] of 43. It also gave an IC50 [3] of 38.4 µg/mL, an IC80 [3] of over 50 µg/mL and an MPI [3] of 57. It also gave an IC50 [4] of 33.4 µg/mL, an IC80 [4] of over 50 µg/mL and an MPI [4] of 61. The IC50 [5] was 16.1 µg/mL, the IC80 [5] was over 50 µg/mL and the MPI [5] was 79. It also gave an IC50 [6] of 2.46 µg/mL, an IC80 [6] of 6.65 µg/mL and an MPI [6] of 100. It also gave an IC50 [7] of over 50 µg/mL, an IC80 [7] of over 50 µg/mL and an MPI [7] of 37. For the same substance, the IC50 [8] was 10.3 µg/mL, the IC80 [8] was 24.8 µg/mL and the MPI [8] was 92. The IC50 [9] was 9.65 µg/mL, the IC80 [9] was 40.2 µg/mL and the MPI [9] was 84. It also gave an IC50 [10] of over 50 µg/mL, an IC80 [10] of over 50 µg/mL and an MPI [10] of 17. The IC50 [11] was over 50 µg/mL, the IC80 [11] was over 50 µg/mL and the MPI [11] was 0. It also gave an IC50 [12] of 5.71 µg/mL, an IC80 [12] of 23.1 µg/mL and an MPI [12] of 94. It also gave an IC50 [13] of over 50 µg/mL, an IC80 [13] of over 50 µg/mL and an MPI [13] of 48. It also gave an IC50 [14] of 35.2 µg/mL, an IC80 [14] of over 50 µg/mL and an MPI [14] of 60. It also gave an IC50 [15] of 7.93 µg/mL, an IC80 [15] of 29.2 µg/mL and an MPI [15] of 95. It also gave an IC50 [16] of 14.1 µg/mL, an IC80 [16] of 43.4 µg/mL and an MPI [16] of 84. It also gave an IC50 [17] of 4.08 µg/mL, an IC80 [17] of 21.8 µg/mL and an MPI [17] of 97.

— US20230002480A1
